The text below walks through data of article PMC9969250.

Data set [1] has as its target T1, Plasmodium falciparum lactate dehydrogenase (PfLDH) (Plasmodium falciparum, UniProt Q76NM3 1-316). The data set can be described thus: SPR. For orientation: Surface plasmon resonance follows binding to a sensor surface in real time, without labels.
Data set [2] addresses T1, Plasmodium falciparum lactate …. The data set is described as follows: SPR. This is another data set of the same source.

B1: biotinylated L2 (structured_DNA)
DNA: TTTAGATCTTTGCCGCTGGGCGGTAGAACCATAGTGACCCAGCCGTCTAC
modifications: biotin (position not given)
For B1, in data set [1], the Kd was determined as 66 ± 7 nM.

B2: nanotrain without L2 on SPR chip (NT0; 5'-biotin-D + C + B + A.1) (mixed)
DNA 1: CGGCAAAGATCTAAAGGCGACAAGGAAAATCCTTCAACGAAGTGGGTCGCCCTAACTCTCTATCCG
DNA 2: TTGAGCTGGTTGTATGGCGACAAGGAAAATCCTTCAACGAAGTGGGTCGCCGGATAGAGAGTTAGG
DNA 3: ATACAACCAGCTCAAGGCGACAAGGAAAATCCTTCAACGAAGTGGGTCGCCATTCATAAACATAAC
DNA 4: GGCGACAAGGAAAATCCTTCAACGAAGTGGGTCGCCGTTATGTTTATGAAT
modifications: 5' biotin on D
In the case of B2, the binding result in data set [2] is recorded as “no binding”.

By Kd is commonly meant the concentration at which binding is half-saturated.
